Experimental findings from paper doi:10.1101/306035 are described below.

Assay [1] deals with DcaP lacking 40 residues at the N-terminus of the mature protein (DcaP_(DN40)) (Acinetobacter baumannii (strain AB307-0294)). Nature of the assay: SEC.
For assay [2], the target named is full-length DcaP from Acinetobacter baumannii AB307-0294 (DcaPfl) (Acinetobacter baumannii (strain AB307-0294)). Nature of the assay: single channel electrophysiology in planar lipid bilayers.
Assay [3] shares this target. Nature of the assay: SEC. On the technique in general: Size exclusion chromatography separates by hydrodynamic size, large species first.
Assay [4] has as its target barrel-only DcaP lacking the first 59 residues (DcaP_(Trunc)) (Acinetobacter baumannii (strain AB307-0294)). Nature of the assay: SEC.
The target of assay [5] is seleno-methionine substituted DcaP_(DN40) with L280M and L282M (Acinetobacter baumannii (strain AB307-0294)). Nature of the assay: crystal structure.

In general, stoichiometry N refers to a count of units in the complex or per binding partner. The substance “DcaP lacking 40 residues at the N-terminus of the mature protein (DcaP_(DN40)) (domain or fragment)” had a stoichiometry N in assay [1] of 3.

Regarding “full-length DcaP from Acinetobacter baumannii AB307-0294 (DcaPfl) (natural protein)”, the stoichiometry N in assay [2] and in assay [3] was 3 in each case.

Regarding “barrel-only DcaP lacking the first 59 residues (DcaP_(Trunc)) (domain or fragment)”, the stoichiometry N in assay [4] is 3.

“seleno-methionine substituted DcaP_(DN40) with L280M and L282M (domain or fragment)” had a stoichiometry N in assay [5] of 3.
